We go through 1 protein from paper PMC9049628.

Substrate in this data set: NCCCC[C@H](N)C(=O)O
In words: purified protein. The settings on record: 5 mM acetyl-CoA, 50 mM Tris-HCl pH 10.0, 40 °C, 0.65 mM DTNB.

B1: ShKAT (Salinicoccus halodurans) (protein)
chain: MWQTKKFNELSLSEIEQIFRLRQSIFIIEQQSYFADIDGKDTEAIHIFNKENNIIWAYCRILIYDEKVILGRVTVHSDKRGNGNGRELLNTALKYLKENYPDKFVQIVAMSYLKDFYKSYGFKSISEVYIMDDHPHEDMILKH
Take B1: the Km (as a rule, the concentration of substrate that gives half-maximal velocity) is 1890 µM.
